Experimental data taken from patent US20260365739 (published 2026).
Numbering of substitutions follows the chain as printed.

B1: IGF1R4_22_88 (antibody, V domains shown)
VH: QVKLEESGGGLVQAGGSLRLCCEVSGGTVSPTAMGWFRQAPGKEREFVGHITWSRGTTRVASSVKDRFTISRDSAKNTVCLQMNSLKSEDTAVYYCAASTFLRILPEESAYTYWGQGTQVTVSS
B2: IGF1R4_24_86 (antibody, V domains shown)
VH: B1 VH with C21S, E23C, T78C, C80Y
B3: IGF1R4_4_25 (antibody, V domains shown)
VH: B1 VH with L4C, C21S, V24C, C80Y
B4: IGF1R4_6_119 (designed binder)
chain: B1 VH with E6C, C21S, C80Y, G115C
B5: IGF1R4 (antibody, V domains shown)
VH: B1 VH with C21S, C80Y
B6: IGF1R3_6_119 (designed binder)
chain: QVKLECSGGGLVQAGGSLRLSCVASEYPSNFYAMSWFRQAPGKEREFVAGVSRDGLTTLYADSVKGRFTMSRDNAKNTVDLQMNSVKAEDTAVYYCAIVITGVWNKVDVNSRSYHYWCQGTQVTVSS
B7: IGF1R3_24_86 (antibody, V domains shown)
VH: B6 chain with C6E, V23C, T78C, C118G
B8: IGF1R3_22_88 (antibody, V domains shown)
VH: B6 chain with C6E, S21C, D80C, C118G
B9: IGF1R3_4_25 (antibody, V domains shown)
VH: B6 chain with L4C, C6E, A24C, C118G
B10: IGF1R3 (antibody, V domains shown)
VH: B6 chain with C6E, C118G
B11: IGF1R5_4_25 (antibody, V domains shown)
VH: QVKCEESGGGLVQAGGSLRLSCACSGRTIDNYAMAWSRQAPGKDREFVATIDWGDGGARYANSVKGRFTISRDNAKGTMYLQMNNLEPEDTAVYSCAMARQSRVNLDVARYDYWGQGTQVTVSS
B12: IGF1R5 (antibody, V domains shown)
VH: B11 VH with C4L, C24A
B13: IGF1R5_22_88 (antibody, V domains shown)
VH: B11 VH with C4L, S21C, C24A, Y80C
B14: EG2 (antibody, V domains shown)
VH: QVQLVESGGGLVQAGDSLRVSCAASGRDFSDYVMGWFRQAPGKEREFVAAISRNGLTTRYADSVKGRFTISRDNDKNMVYLQMNSLKPEDTAVYYCAVNSAGTYVSPRSREYDYWGQGTQVTVSS
B15: EG2_6_119 (designed binder)
chain: B14 VH with E6C, G116C
B16: EG2_24_86 (antibody, V domains shown)
VH: B14 VH with A23C, M78C
B17: EG2_22_88 (antibody, V domains shown)
VH: B14 VH with S21C, Y80C
B18: EG2_4_25 (antibody, V domains shown)
VH: B14 VH with L4C, A24C

molecular target: IGF1R (human, UniProt P08069); assay: SPR
Sequence (P08069 31-932): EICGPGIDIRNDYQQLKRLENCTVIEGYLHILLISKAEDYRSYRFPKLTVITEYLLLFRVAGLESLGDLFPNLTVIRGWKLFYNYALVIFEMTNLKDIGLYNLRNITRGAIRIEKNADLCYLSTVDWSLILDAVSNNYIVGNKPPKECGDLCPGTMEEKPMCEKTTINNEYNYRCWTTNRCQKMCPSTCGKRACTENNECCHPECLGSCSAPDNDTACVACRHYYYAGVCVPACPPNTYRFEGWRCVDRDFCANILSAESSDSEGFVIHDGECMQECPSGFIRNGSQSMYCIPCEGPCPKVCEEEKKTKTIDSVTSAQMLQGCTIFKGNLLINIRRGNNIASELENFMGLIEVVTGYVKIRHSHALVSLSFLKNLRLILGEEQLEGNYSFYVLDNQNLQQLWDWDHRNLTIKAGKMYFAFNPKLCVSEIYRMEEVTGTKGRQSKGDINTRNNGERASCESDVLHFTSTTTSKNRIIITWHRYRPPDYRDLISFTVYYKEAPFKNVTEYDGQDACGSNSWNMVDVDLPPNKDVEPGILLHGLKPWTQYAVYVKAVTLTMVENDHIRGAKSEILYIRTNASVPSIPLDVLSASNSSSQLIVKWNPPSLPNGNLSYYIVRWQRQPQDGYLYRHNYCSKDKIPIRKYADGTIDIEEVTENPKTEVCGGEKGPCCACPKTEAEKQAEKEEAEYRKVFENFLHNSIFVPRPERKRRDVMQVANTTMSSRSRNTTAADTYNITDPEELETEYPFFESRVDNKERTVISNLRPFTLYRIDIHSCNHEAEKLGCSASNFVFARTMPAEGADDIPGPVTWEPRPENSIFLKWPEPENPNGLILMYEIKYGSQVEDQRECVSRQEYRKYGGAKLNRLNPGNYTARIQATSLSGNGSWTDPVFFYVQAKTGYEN

Row | Kd | Binder
1 | 0.5 nM | B1
2 | 1.1 nM | B2
3 | 0.5 nM | B3
4 | 0.3 nM | B4
5 | 0.3 nM | B5
6 | 1.4 nM | B6
7 | 5.3 nM | B7
8 | 0.8 nM | B8
9 | 2.3 nM | B9
10 | 0.9 nM | B10
11 | 0.8 nM | B11
12 | 1.1 nM | B12
13 | 1.4 nM | B13

molecular target: EGFR (human, UniProt P00533); assay: SPR

Row | Kd | Binder
14 | 14.6 nM | B14
15 | 25.7 nM | B15
16 | 62.5 nM | B16
17 | 47.2 nM | B17
18 | 10.6 nM | B18
